Our source for the Kd values is US20100310509A1 (published 2010).

Sequences and labels used below:
B1: soluble human LIFR (leukemia inhibitory factor receptor) (receptor, UniProt P42702 45-833, looked up)
chain: QKKGAPHDLKCVTNNLQVWNCSWKAPSGTGRGTDYEVCIENRSRSCYQLEKTSIKIPALSHGDYEITINSLHDFGSSTSKFTLNEQNVSLIPDTPEILNLSADFSTSTLYLKWNDRGSVFPHRSNVIWEIKVLRKESMELVKLVTHNTTLNGKDTLHHWSWASDMPLECAIHFVEIRCYIDNLHFSGLEEWSDWSPVKNISWIPDSQTKVFPQDKVILVGSDITFCCVSQEKVLSALIGHTNCPLIHLDGENVAIKIRNISVSASSGTNVVFTTEDNIFGTVIFAGYPPDTPQQLNCETHDLKEIICSWNPGRVTALVGPRATSYTLVESFSGKYVRLKRAEAPTNESYQLLFQMLPNQEIYNFTLNAHNPLGRSQSTILVNITEKVYPHTPTSFKVKDINSTAVKLSWHLPGNFAKINFLCEIEIKKSNSVQEQRNVTIKGVENSSYLVALDKLNPYTLYTFRIRCSTETFWKWSKWSNKKQHLTTEASPSKGPDTWREWSSDGKNLIIYWKPLPINEANGKILSYNVSCSSDEETQSLSEIPDPQHKAEIRLDKNDYIISVVAKNSVGSSPPSKIASMEIPNDDLKIEQVVGMGKGILLTWHYDPNMTCDYVIKWCNSSRSEPCLMDWRKVPSNSTETVIESDEFRPGIRYNFFLYGCRNQGYQLLRSMIGYIEELAPIVAPNFTVEDTSADSILVKWEDIPVEELRGFLRGYLFYFGKGERDTSKMRVLESGRSDIKVKNITDISQKTLRIADLQGKTSYHLVLRAYTDGGVGPEKSMYVVTKENS
notes: extracellular domain; Bought; also called soluble LIFR

In assay [1] the target is T1, gp130 bound OSM-WT (gp130:OSM-WT) (human, UniProt P40189 23-619).
T1 construct: extracellular domain; Non-covalent complex formed on the plate: gp130 coated, then 200 nM OSM-WT; also called OSM-WT with gp130; not shown: N-terminal FLAG tag
T1 sequence 1: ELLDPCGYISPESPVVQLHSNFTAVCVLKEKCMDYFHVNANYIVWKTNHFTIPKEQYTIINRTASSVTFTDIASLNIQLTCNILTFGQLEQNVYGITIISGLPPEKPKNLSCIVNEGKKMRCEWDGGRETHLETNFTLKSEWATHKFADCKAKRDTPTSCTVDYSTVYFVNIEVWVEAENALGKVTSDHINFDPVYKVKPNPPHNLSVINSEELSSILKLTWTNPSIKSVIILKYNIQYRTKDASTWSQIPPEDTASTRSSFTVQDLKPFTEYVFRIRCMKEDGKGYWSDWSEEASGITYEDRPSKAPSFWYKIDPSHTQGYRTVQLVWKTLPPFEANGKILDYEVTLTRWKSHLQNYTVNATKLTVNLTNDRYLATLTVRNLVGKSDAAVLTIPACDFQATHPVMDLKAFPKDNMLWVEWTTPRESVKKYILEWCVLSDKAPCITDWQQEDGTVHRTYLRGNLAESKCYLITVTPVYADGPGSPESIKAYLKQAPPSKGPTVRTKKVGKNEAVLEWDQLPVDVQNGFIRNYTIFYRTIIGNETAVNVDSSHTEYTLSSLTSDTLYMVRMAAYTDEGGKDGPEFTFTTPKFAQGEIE
T1 sequence 2: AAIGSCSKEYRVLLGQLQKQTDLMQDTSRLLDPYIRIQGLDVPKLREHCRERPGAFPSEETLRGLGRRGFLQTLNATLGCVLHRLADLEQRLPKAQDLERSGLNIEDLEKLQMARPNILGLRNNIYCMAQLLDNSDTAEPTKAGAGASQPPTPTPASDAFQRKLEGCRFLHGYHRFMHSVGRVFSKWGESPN
Nature of the assay: ELISA, apparent KD (KD,App), gp130 coated, saturating cytokine, soluble LIFR titrated (with gp130). The procedure: (§1) FIG. 13 graphically depicts an ELISA analysis of soluble OSMR and soluble LIFR binding with LIF, OSM-WT, OSM-M1 and OSM-M2 or gp130 bound LIF (gp130:LIF), OSM-WT (gp130:OSM-WT), OSM-M1 (gp130:OSM-M1) and OSM-M2 (gp130:OSM-M2). Cytokines (LIF, OSM-WT, OSM-M1 or OSM-M2) immobilized on an ELISA plate in the absence (A,C) or presence (B,D) of gp130 were treated with various concentrations of soluble OSMR (A,B) or soluble LIFR (C,D). Equilibrium KD values were estimated using a non-linear curve fitting to the binding data using GraphPad Prism (Graph Pad Software. LaJolla, Calif.). In addition, see Table 3.
(§2) Enzyme-linked immunosorbent assay (ELISA): ELISA was used to evaluate the equilibrium binding strength of the interaction between the cytokines and their receptors. This technique has traditionally been used as a sensitive method to quantify the binding affinities between two interacting proteins. However, unlike in SPR, ELISA involves immobilization of the proteins on a flat plastic surface driven by hydrophobic and ionic interactions. This might cause some distortion in the 3 dimensional structure of immobilized protein which leads to inaccuracies in the estimation of dissociation constants. It is thus important to bear in mind that the values estimated using this technique are to be used only for comparison between species but not as true equilibrium binding constants. The results obtained using this technique will thus be presented as apparent equilibrium dissociation constants (K_{D,App}). For direct interaction studies, cytokines (LIF, OSM-WT, OSM-M1 or OSM-M2) were immobilized on the 96 well ELISA plate by incubating the wells with 200 μl of 5 nM cytokine solution in PBS, pH 7.4 overnight at 4° C. The wells were then blocked with blocking buffer (4% BSA in PBS) for 1 hour at room temperature. After washing with 250 μl of washing buffer (0.05% Tween-20 in PBS) 3 times, the cytokines were treated with a series of concentrations of soluble human LIFR (Catalog #249-LR-050/CF, R&D Systems, Minneapolis, Minn.) or OSMR (Catalog #4389-OR-050, R&D Systems, Minneapolis, Minn.) in 150 μl of blocking buffer for 2 hours.
A general note: In an ELISA, binding on a coated surface is turned into a signal by an enzyme label.

Assay [2] concerns the target B1. The assay is described as above. How it is done:
as §1, §2

Regarding B1, the Kd in assay [1] was 0.0703 µM.

B2: gp130 bound LIF (gp130:LIF) (other)
chain 1: ELLDPCGYISPESPVVQLHSNFTAVCVLKEKCMDYFHVNANYIVWKTNHFTIPKEQYTIINRTASSVTFTDIASLNIQLTCNILTFGQLEQNVYGITIISGLPPEKPKNLSCIVNEGKKMRCEWDGGRETHLETNFTLKSEWATHKFADCKAKRDTPTSCTVDYSTVYFVNIEVWVEAENALGKVTSDHINFDPVYKVKPNPPHNLSVINSEELSSILKLTWTNPSIKSVIILKYNIQYRTKDASTWSQIPPEDTASTRSSFTVQDLKPFTEYVFRIRCMKEDGKGYWSDWSEEASGITYEDRPSKAPSFWYKIDPSHTQGYRTVQLVWKTLPPFEANGKILDYEVTLTRWKSHLQNYTVNATKLTVNLTNDRYLATLTVRNLVGKSDAAVLTIPACDFQATHPVMDLKAFPKDNMLWVEWTTPRESVKKYILEWCVLSDKAPCITDWQQEDGTVHRTYLRGNLAESKCYLITVTPVYADGPGSPESIKAYLKQAPPSKGPTVRTKKVGKNEAVLEWDQLPVDVQNGFIRNYTIFYRTIIGNETAVNVDSSHTEYTLSSLTSDTLYMVRMAAYTDEGGKDGPEFTFTTPKFAQGEIE
chain 2: not shown
notes: Non-covalent complex formed on the plate: gp130 coated, then saturating cytokine; also called LIF with gp130
In the case of B2, in assay [2], the Kd was 0.0103 µM.

B3: gp130 bound OSM-M2 (gp130:OSM-M2) (other, human)
chain 1: ELLDPCGYISPESPVVQLHSNFTAVCVLKEKCMDYFHVNANYIVWKTNHFTIPKEQYTIINRTASSVTFTDIASLNIQLTCNILTFGQLEQNVYGITIISGLPPEKPKNLSCIVNEGKKMRCEWDGGRETHLETNFTLKSEWATHKFADCKAKRDTPTSCTVDYSTVYFVNIEVWVEAENALGKVTSDHINFDPVYKVKPNPPHNLSVINSEELSSILKLTWTNPSIKSVIILKYNIQYRTKDASTWSQIPPEDTASTRSSFTVQDLKPFTEYVFRIRCMKEDGKGYWSDWSEEASGITYEDRPSKAPSFWYKIDPSHTQGYRTVQLVWKTLPPFEANGKILDYEVTLTRWKSHLQNYTVNATKLTVNLTNDRYLATLTVRNLVGKSDAAVLTIPACDFQATHPVMDLKAFPKDNMLWVEWTTPRESVKKYILEWCVLSDKAPCITDWQQEDGTVHRTYLRGNLAESKCYLITVTPVYADGPGSPESIKAYLKQAPPSKGPTVRTKKVGKNEAVLEWDQLPVDVQNGFIRNYTIFYRTIIGNETAVNVDSSHTEYTLSSLTSDTLYMVRMAAYTDEGGKDGPEFTFTTPKFAQGEIE
chain 2: AAIGSCSKEYRVLLGQLQKQTDLMQDTSRLLDPYIRIQGLDVPKLREHCRERPGAFPSEETLRGLGRRGFLQTLNATLGCVLHRLADLEQRLGGGNIEDLEKLQMARPNILGLRNNIYCMAQLLDNSDTAEPTKAGAGASQPPTPTPASDAFQRKLEGCRFLHGYHRFMHSVGRVFSKWGESPN
notes: extracellular domain; Non-covalent complex formed on the plate: gp130 coated, then 200 nM OSM-M2; also called OSM-M2 with gp130; not shown: N-terminal FLAG tag
Regarding B3, in assay [2], the Kd is 0.00913 µM.

B4: gp130 bound OSM-M1 (gp130:OSM-M1) (other, human)
chain 1: ELLDPCGYISPESPVVQLHSNFTAVCVLKEKCMDYFHVNANYIVWKTNHFTIPKEQYTIINRTASSVTFTDIASLNIQLTCNILTFGQLEQNVYGITIISGLPPEKPKNLSCIVNEGKKMRCEWDGGRETHLETNFTLKSEWATHKFADCKAKRDTPTSCTVDYSTVYFVNIEVWVEAENALGKVTSDHINFDPVYKVKPNPPHNLSVINSEELSSILKLTWTNPSIKSVIILKYNIQYRTKDASTWSQIPPEDTASTRSSFTVQDLKPFTEYVFRIRCMKEDGKGYWSDWSEEASGITYEDRPSKAPSFWYKIDPSHTQGYRTVQLVWKTLPPFEANGKILDYEVTLTRWKSHLQNYTVNATKLTVNLTNDRYLATLTVRNLVGKSDAAVLTIPACDFQATHPVMDLKAFPKDNMLWVEWTTPRESVKKYILEWCVLSDKAPCITDWQQEDGTVHRTYLRGNLAESKCYLITVTPVYADGPGSPESIKAYLKQAPPSKGPTVRTKKVGKNEAVLEWDQLPVDVQNGFIRNYTIFYRTIIGNETAVNVDSSHTEYTLSSLTSDTLYMVRMAAYTDEGGKDGPEFTFTTPKFAQGEIE
chain 2: AAIGSCSKEYRVLLGQLQKQTDLMQDTSRLLDPYIRIQGLDVPKLREHCRERPGAFPSEETLRGLGRRGFLQTLNATLGCVLHRLADLEQRLGAPSGLNIEDLEKLQMARPNILGLRNNIYCMAQLLDNSDTAEPTKAGAGASQPPTPTPASDAFQRKLEGCRFLHGYHRFMHSVGRVFSKWGESPN
notes: extracellular domain; Non-covalent complex formed on the plate: gp130 coated, then 200 nM OSM-M1; also called OSM-M1 with gp130; not shown: N-terminal FLAG tag
Consider B4, for which, in assay [2], the Kd was 0.0126 µM.
